Like-named read-outs stand apart in the source and are kept apart here.
Assays:
Type in all cases: cell-based
UO-31 = assay: NCI60 in vitro screening, Renal Cancer
OVCAR-8 = assay: NCI60 in vitro screening, Ovarian Cancer
NCI-H460 = tested on: NCI-H460
HT29 = assay: NCI60 in vitro screening, Colon Cancer
MOLT-4 = assay: NCI60 in vitro screening, Leukemia
LOX IMVI = assay: NCI60 in vitro screening, Melanoma; settings: one dose
A498 = assay: NCI60 in vitro screening, Renal Cancer
TK-10 = assay: NCI60 in vitro screening, Renal Cancer

B1: GMI: immunomodulatory protein from Ganoderma microsporum, amino acid sequence SEQ ID NO: 3, manufactured by Mycomagic Biotechnology Co., Ltd. (protein, listed as Ganoderma microsporum)
chain: MSDTALIFTLAWNVKQLAFDYTPNWGRGRPSSFIDTVTFPTVLTDKAYTYRVVVSGKDLGVRPSYAVESDGSQKINFLEYNSGYGIADTNTIQVYVIDPDTGNNFIVAQWN
TGI (UO-31; UO-31): 2.65E1 | Percent Growth (UO-31; UO-31, Log10 Concentration 0.1): 119% | Percent Growth (UO-31; UO-31, Log10 Concentration 1.1): 38% | Percent Growth (UO-31; UO-31, Log10 Concentration 2.1): −77% | Percent Growth (UO-31; UO-31, Log10 Concentration −0.9): 102% | Percent Growth (UO-31; UO-31, Log10 Concentration −1.9): 97% | Growth Percent (UO-31; UO-31, one dose): 14.01% | GI50 (UO-31; UO-31, in µg/mL): 8.79E0 | LC50 (UO-31; UO-31, in µg/mL): 7.22E1 | TGI (OVCAR-8; OVCAR-8): >1.25E2 | Percent Growth (OVCAR-8; OVCAR-8, Log10 Concentration 0.1): 99% | Percent Growth (OVCAR-8; OVCAR-8, Log10 Concentration 1.1): 91% | Percent Growth (OVCAR-8; OVCAR-8, Log10 Concentration 2.1): 31% | Percent Growth (OVCAR-8; OVCAR-8, Log10 Concentration −0.9): 95% | Percent Growth (OVCAR-8; OVCAR-8, Log10 Concentration −1.9): 98% | Growth Percent (OVCAR-8; OVCAR-8, one dose): 76.68% | GI50 (OVCAR-8; OVCAR-8, in µg/mL): 6.00E1 | TGI (NCI-H460; NCI-H460): >1.25E2 | Percent Growth (NCI-H460; NCI-H460, Log10 Concentration 0.1): 100% | Percent Growth (NCI-H460; NCI-H460, Log10 Concentration 1.1): 91% | Percent Growth (NCI-H460; NCI-H460, Log10 Concentration 2.1): 33% | Percent Growth (NCI-H460; NCI-H460, Log10 Concentration −0.9): 104% | Percent Growth (NCI-H460; NCI-H460, Log10 Concentration −1.9): 103% | Growth Percent (NCI-H460; NCI-H460, one dose): 86.38% | GI50 (NCI-H460; NCI-H460, in µg/mL): 6.47E1 | TGI (HT29; HT29): >1.25E2 | Percent Growth (HT29; HT29, Log10 Concentration 0.1): 98% | Percent Growth (HT29; HT29, Log10 Concentration 1.1): 57% | Percent Growth (HT29; HT29, Log10 Concentration 2.1): 22% | Percent Growth (HT29; HT29, Log10 Concentration −0.9): 99% | Percent Growth (HT29; HT29, Log10 Concentration −1.9): 100% | Growth Percent (HT29; HT29, one dose): 28.36% | GI50 (HT29; HT29, in µg/mL): 1.95E1 | TGI (MOLT-4; MOLT-4): >1.25E2 | Percent Growth (MOLT-4; MOLT-4, Log10 Concentration 0.1): 103% | Percent Growth (MOLT-4; MOLT-4, Log10 Concentration 1.1): 62% | Percent Growth (MOLT-4; MOLT-4, Log10 Concentration 2.1): 1% | Percent Growth (MOLT-4; MOLT-4, Log10 Concentration −0.9): 97% | Percent Growth (MOLT-4; MOLT-4, Log10 Concentration −1.9): 95% | Growth Percent (MOLT-4; MOLT-4, one dose): 44.75% | GI50 (MOLT-4; MOLT-4, in µg/mL): 1.99E1 | Growth Percent (LOX IMVI): 67.70% | TGI (A498; A498): 7.07E1 | Percent Growth (A498; A498, Log10 Concentration 0.1): 114% | Percent Growth (A498; A498, Log10 Concentration 1.1): 108% | Percent Growth (A498; A498, Log10 Concentration 2.1): −35% | Percent Growth (A498; A498, Log10 Concentration −0.9): 102% | Percent Growth (A498; A498, Log10 Concentration −1.9): 107% | Growth Percent (A498; A498, one dose): 98.16% | GI50 (A498; A498, in µg/mL): 3.17E1 | TGI (TK-10; TK-10): 4.91E0 | Percent Growth (TK-10; TK-10, Log10 Concentration 0.1): 106% | Percent Growth (TK-10; TK-10, Log10 Concentration 1.1): −72% | Percent Growth (TK-10; TK-10, Log10 Concentration 2.1): −100% | Percent Growth (TK-10; TK-10, Log10 Concentration −0.9): 98% | Percent Growth (TK-10; TK-10, Log10 Concentration −1.9): 96% | Growth Percent (TK-10; TK-10, one dose): −92.37% | GI50 (TK-10; TK-10, in µg/mL): 2.57E0 | LC50 (TK-10; TK-10, in µg/mL): 9.38E0
